Experimental data: article PMC12551112, “Exploration into the MLL4/WRAD Enzyme-Substrate Network: Systematic In Vitro Identification of CFP1 as a Potential Non-Histone Substrate of the MLL4 Lysine Methyltransferase” (Epigenomes, 2025)
Ends that are not written are not given here. Me3 = trimethyl-lysine; Me2 = dimethyl-lysine

T1: MLL4 PHD1–3 (residues 156–341) (UniProt O14686 156-341)
T1 construct: MLL4 (KMT2D, ALR), PHD fingers 1–3, residues 156–341; Detected on the array with anti-6xHis-HRP; The purification of the PHD constructs is not described separately; also called MLL4 PHD1–3 cassette; KMT2D PHD1–3; source: bacterially expressed recombinant
T1 sequence (looked up): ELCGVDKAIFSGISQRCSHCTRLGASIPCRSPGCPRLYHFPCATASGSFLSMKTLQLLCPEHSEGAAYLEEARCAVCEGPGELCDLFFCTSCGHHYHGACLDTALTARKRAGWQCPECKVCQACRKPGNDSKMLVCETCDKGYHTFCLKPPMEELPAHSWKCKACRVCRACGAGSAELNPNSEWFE

B1: CFP1 K335me0 peptide (peptide, UniProt Q9P0U4 325-345, looked up)
peptide: VKVKHVKRREKKSEKKKEERY
notes: CFP1 (CXXC finger protein 1), human, peptide centred on K335 with 10 flanking residues on each side; held on the cellulose membrane of the array; also called unmethylated K335; source: synthetic peptide, SPOT synthesis on cellulose membrane
B2: CFP1 K331me1 peptide (peptide, UniProt Q9P0U4 321-341, looked up)
peptide: RKRAVKVKHVK(Me)RREKKSEKKK
notes: CFP1 (CXXC finger protein 1), human, peptide centred on K331 with 10 flanking residues on each side; held on the cellulose membrane of the array; also called K331 Kme1; source: synthetic peptide, SPOT synthesis on cellulose membrane
B3: CFP1 K339me1 peptide (peptide, UniProt Q9P0U4 329-349, looked up)
peptide: HVKRREKKSEK(Me)KKEERYKRHR
notes: CFP1 (CXXC finger protein 1), human, peptide centred on K339 with 10 flanking residues on each side; held on the cellulose membrane of the array; source: synthetic peptide, SPOT synthesis on cellulose membrane
B4: CFP1 K335me2 peptide (peptide, UniProt Q9P0U4 325-345, looked up)
peptide: VKVKHVKRREK(Me2)KSEKKKEERY
notes: CFP1 (CXXC finger protein 1), human, peptide centred on K335 with 10 flanking residues on each side; held on the cellulose membrane of the array; source: synthetic peptide, SPOT synthesis on cellulose membrane
B5: CFP1 K335me1 peptide (peptide, UniProt Q9P0U4 325-345, looked up)
peptide: VKVKHVKRREK(Me)KSEKKKEERY
notes: as for B4
B6: CFP1 K335me3 peptide (peptide, UniProt Q9P0U4 325-345, looked up)
peptide: VKVKHVKRREK(Me3)KSEKKKEERY
notes: as for B4
B7: CFP1 K340me3 peptide (peptide, UniProt Q9P0U4 330-350, looked up)
peptide: VKRREKKSEKK(Me3)KEERYKRHRQ
notes: CFP1 (CXXC finger protein 1), human, peptide centred on K340 with 10 flanking residues on each side; held on the cellulose membrane of the array; source: synthetic peptide, SPOT synthesis on cellulose membrane
B8: CFP1 K351me2 peptide (peptide, UniProt Q9P0U4 341-361, looked up)
peptide: KEERYKRHRQK(Me2)QKHKDKWKHP
notes: CFP1 (CXXC finger protein 1), human, peptide centred on K351 with 10 flanking residues on each side; held on the cellulose membrane of the array; source: synthetic peptide, SPOT synthesis on cellulose membrane

biological target: T1, MLL4 PHD1–3 (residues 156–341); experiment: peptide or protein array; SPOT peptides on cellulose membrane; 1 μM 6xHis-tagged MLL4 PHD cassette in TBS-T overnight at 4 °C; probed with anti-6xHis-HRP, chemiluminescence; signals relative to the H4K20me0 peptide (100%), spots of at least 50% taken as candidate binders; conditions: both partners purified

binding result | Binder
binds | B1
binds | B2
binds | B3
binds | B4
binds | B5
binds | B6

biological target: T2, MLL4 PHD4–6 (residues 1358–1572) (UniProt O14686 1358-1572); experiment: as above; conditions: both partners purified
T2 construct: MLL4 (KMT2D, ALR), PHD fingers 4–6, residues 1358–1572; Detected on the array with anti-6xHis-HRP; The purification of the PHD constructs is not described separately; also called MLL4 PHD4–6 cassette; KMT2D PHD4–6; source: bacterially expressed recombinant
T2 sequence (O14686 1358-1572): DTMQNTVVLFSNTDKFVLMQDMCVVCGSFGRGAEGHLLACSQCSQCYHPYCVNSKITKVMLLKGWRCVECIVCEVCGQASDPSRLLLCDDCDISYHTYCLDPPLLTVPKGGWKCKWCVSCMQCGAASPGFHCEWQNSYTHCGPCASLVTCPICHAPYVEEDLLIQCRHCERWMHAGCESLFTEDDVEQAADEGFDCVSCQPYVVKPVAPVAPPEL

binding result | Binder
binds | B1
binds | B7
binds | B4
binds | B5
binds | B6
binds | B8

biological target: T3, MLL4 PHD7 (residues 5079–5152) (UniProt O14686 5079-5152); experiment: as above; conditions: both partners purified
T3 construct: MLL4 (KMT2D, ALR), PHD finger 7, residues 5079–5152; Detected on the array with anti-6xHis-HRP; The purification of the PHD constructs is not described separately; also called KMT2D PHD7; source: bacterially expressed recombinant
T3 sequence (O14686 5079-5152): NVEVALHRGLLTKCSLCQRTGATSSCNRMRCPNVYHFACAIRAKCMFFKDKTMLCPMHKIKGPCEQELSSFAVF

binding result | Binder
binds | B1
